T1: APBA2_1, Q99767
T1 sequence (Q99767 563-664, limits assumed, looked up): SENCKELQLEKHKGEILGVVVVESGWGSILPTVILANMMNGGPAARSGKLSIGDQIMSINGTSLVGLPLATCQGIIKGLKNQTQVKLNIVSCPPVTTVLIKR

T2: APBA3_1, O96018
T2 sequence (O96018 389-490, limits assumed, looked up): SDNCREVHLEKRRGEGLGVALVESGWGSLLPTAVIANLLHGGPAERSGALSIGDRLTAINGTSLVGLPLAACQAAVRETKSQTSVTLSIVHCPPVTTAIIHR

T3: GRIP1_7, Q9Y3R0
T3 sequence (Q9Y3R0 999-1096, limits assumed, looked up): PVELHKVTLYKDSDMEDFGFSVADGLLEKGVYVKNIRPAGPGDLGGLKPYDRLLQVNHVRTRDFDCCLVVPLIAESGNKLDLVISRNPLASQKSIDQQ

T4: HTRA4, P83105
T4 sequence (P83105 378-476, limits assumed, looked up): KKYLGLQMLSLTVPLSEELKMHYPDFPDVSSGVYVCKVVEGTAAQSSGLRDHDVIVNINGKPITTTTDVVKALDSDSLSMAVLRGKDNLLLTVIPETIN

T5: LNX2_3, Q8N448
T5 sequence (Q8N448 463-564, limits assumed, looked up): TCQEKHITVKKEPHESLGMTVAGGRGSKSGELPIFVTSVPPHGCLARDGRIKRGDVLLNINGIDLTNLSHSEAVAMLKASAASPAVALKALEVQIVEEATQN

T6: MPP6, Q9NZW5
T6 sequence (Q9NZW5 125-219, limits assumed, looked up): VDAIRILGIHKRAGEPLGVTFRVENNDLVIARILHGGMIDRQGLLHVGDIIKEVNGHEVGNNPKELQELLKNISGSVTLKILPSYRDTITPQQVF

T7: PDZD2_2, O15018
T7 sequence (O15018 329-429, limits assumed, looked up): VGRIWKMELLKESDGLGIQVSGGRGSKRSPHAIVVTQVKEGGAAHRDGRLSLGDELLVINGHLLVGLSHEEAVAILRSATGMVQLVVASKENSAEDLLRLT

T8: RADIL, Q96JH8
T8 sequence (Q96JH8 971-1071, limits assumed, looked up): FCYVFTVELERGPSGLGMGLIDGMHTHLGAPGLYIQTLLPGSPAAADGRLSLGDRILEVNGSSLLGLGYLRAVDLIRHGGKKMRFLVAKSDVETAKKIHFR

T9: RAPGEF6, Q8TEU7
T9 sequence (Q8TEU7 525-625, limits assumed, looked up): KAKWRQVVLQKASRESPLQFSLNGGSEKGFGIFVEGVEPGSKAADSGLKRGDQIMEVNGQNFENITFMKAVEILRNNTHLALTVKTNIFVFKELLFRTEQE

T10: SNTB1, Q13884
T10 sequence (Q13884 107-205, limits assumed, looked up): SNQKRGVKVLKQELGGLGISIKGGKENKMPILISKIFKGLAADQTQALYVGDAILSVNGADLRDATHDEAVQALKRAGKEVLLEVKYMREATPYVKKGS

T11: SNTG1, Q9NSN8
T11 sequence (Q9NSN8 52-150, limits assumed, looked up): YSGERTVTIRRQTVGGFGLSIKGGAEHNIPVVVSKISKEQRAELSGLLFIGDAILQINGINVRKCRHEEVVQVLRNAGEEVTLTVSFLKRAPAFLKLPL

T12: TIAM2, Q8IVF5
T12 sequence (Q8IVF5 885-986, limits assumed, looked up): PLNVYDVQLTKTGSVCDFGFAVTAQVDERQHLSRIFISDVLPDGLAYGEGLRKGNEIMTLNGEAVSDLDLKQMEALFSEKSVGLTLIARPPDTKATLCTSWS


Target: T1, APBA2_1, Q99767
Assay: holdup assay
Parameters: key: below the threshold = too weak to quantify, mostly under pKd 3.1 to 4
Conditions: plain residues with an end cap or a label only (N-terminal biotin on a linker: ado-ado)

Binder	pKd
TKGPRGPTRV [SAPCD1, Q5SSQ6]	below the threshold
ETQVTAETVI [TMEM225B, P0DP42]	below the threshold

Target: T2, APBA3_1, O96018
Assay: holdup assay
Parameters: key: below the threshold = too weak to quantify, mostly under pKd 3.1 to 4
Conditions: plain residues with an end cap or a label only (N-terminal biotin on a linker: ado-ado)

Binder	pKd
TKGPRGPTRV [SAPCD1, Q5SSQ6]	below the threshold
ETQVTAETVI [TMEM225B, P0DP42]	below the threshold

Target: DLG1_1, Q12959
Assay: holdup assay
Parameters: key: below the threshold = too weak to quantify, mostly under pKd 3.1 to 4
Conditions: plain residues with an end cap or a label only (N-terminal biotin on a linker: ado-ado)

Binder	pKd
TKGPRGPTRV [SAPCD1, Q5SSQ6]	4.38
ETQVTAETVI [TMEM225B, P0DP42]	3.91

Target: DLG4_1, P78352
Assay: holdup assay
Parameters: key: below the threshold = too weak to quantify, mostly under pKd 3.1 to 4
Conditions: plain residues with an end cap or a label only (N-terminal biotin on a linker: ado-ado)

Chain of DLG4_1, P78352 (P78352 62-152): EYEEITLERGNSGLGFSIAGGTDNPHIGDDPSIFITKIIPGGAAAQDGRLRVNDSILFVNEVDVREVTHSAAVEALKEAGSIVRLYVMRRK

Binder	pKd
TKGPRGPTRV [SAPCD1, Q5SSQ6]	4.48
ETQVTAETVI [TMEM225B, P0DP42]	3.6

Target: DLG5_1, Q8TDM6
Assay: holdup assay
Parameters: key: below the threshold = too weak to quantify, mostly under pKd 3.1 to 4
Conditions: plain residues with an end cap or a label only (N-terminal biotin on a linker: ado-ado)

Chain of DLG5_1, Q8TDM6 (Q8TDM6 617-713): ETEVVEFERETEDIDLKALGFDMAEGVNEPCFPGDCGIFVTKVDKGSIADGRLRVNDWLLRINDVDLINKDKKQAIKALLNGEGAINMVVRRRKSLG

Binder	pKd
TKGPRGPTRV [SAPCD1, Q5SSQ6]	below the threshold
ETQVTAETVI [TMEM225B, P0DP42]	below the threshold

Target: FRMPD2_2, Q68DX3
Assay: holdup assay
Parameters: key: below the threshold = too weak to quantify, mostly under pKd 3.1 to 4
Conditions: plain residues with an end cap or a label only (N-terminal biotin on a linker: ado-ado)

Chain of FRMPD2_2, Q68DX3 (Q68DX3 944-1038): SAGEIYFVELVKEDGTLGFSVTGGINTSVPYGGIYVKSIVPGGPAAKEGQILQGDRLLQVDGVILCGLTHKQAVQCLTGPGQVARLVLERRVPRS

Binder	pKd
TKGPRGPTRV [SAPCD1, Q5SSQ6]	below the threshold
ETQVTAETVI [TMEM225B, P0DP42]	below the threshold

Target: T3, GRIP1_7, Q9Y3R0
Assay: holdup assay
Parameters: key: below the threshold = too weak to quantify, mostly under pKd 3.1 to 4
Conditions: plain residues with an end cap or a label only (N-terminal biotin on a linker: ado-ado)

Binder	pKd
TKGPRGPTRV [SAPCD1, Q5SSQ6]	below the threshold
ETQVTAETVI [TMEM225B, P0DP42]	below the threshold

Target: GRIP2_4, Q9C0E4
Assay: holdup assay
Parameters: key: below the threshold = too weak to quantify, mostly under pKd 3.1 to 4
Conditions: plain residues with an end cap or a label only (N-terminal biotin on a linker: ado-ado)

Chain of GRIP2_4, Q9C0E4 (Q9C0E4 446-548): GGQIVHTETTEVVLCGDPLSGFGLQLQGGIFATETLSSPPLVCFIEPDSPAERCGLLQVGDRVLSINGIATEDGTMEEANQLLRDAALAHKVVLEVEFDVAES

Binder	pKd
TKGPRGPTRV [SAPCD1, Q5SSQ6]	below the threshold
ETQVTAETVI [TMEM225B, P0DP42]	below the threshold

Target: GRIP2_5, Q9C0E4
Assay: holdup assay
Parameters: key: below the threshold = too weak to quantify, mostly under pKd 3.1 to 4
Conditions: plain residues with an end cap or a label only (N-terminal biotin on a linker: ado-ado)

Chain of GRIP2_5, Q9C0E4 (Q9C0E4 544-642): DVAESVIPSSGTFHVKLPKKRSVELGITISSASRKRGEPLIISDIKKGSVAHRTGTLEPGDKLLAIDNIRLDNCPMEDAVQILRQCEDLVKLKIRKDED

Binder	pKd
TKGPRGPTRV [SAPCD1, Q5SSQ6]	below the threshold
ETQVTAETVI [TMEM225B, P0DP42]	below the threshold

Target: GRIP2_6, Q9C0E4
Assay: holdup assay
Parameters: key: below the threshold = too weak to quantify, mostly under pKd 3.1 to 4
Conditions: plain residues with an end cap or a label only (N-terminal biotin on a linker: ado-ado)

Chain of GRIP2_6, Q9C0E4 (Q9C0E4 648-740): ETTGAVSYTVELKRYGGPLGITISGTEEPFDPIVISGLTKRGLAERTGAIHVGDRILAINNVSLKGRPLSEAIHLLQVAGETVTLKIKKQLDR

Binder	pKd
TKGPRGPTRV [SAPCD1, Q5SSQ6]	below the threshold
ETQVTAETVI [TMEM225B, P0DP42]	below the threshold

Target: T4, HTRA4, P83105
Assay: holdup assay
Parameters: key: below the threshold = too weak to quantify, mostly under pKd 3.1 to 4
Conditions: plain residues with an end cap or a label only (N-terminal biotin on a linker: ado-ado)

Binder	pKd
TKGPRGPTRV [SAPCD1, Q5SSQ6]	3.96
ETQVTAETVI [TMEM225B, P0DP42]	below the threshold

Target: Inadl_2, Q8NI35
Assay: holdup assay
Parameters: key: below the threshold = too weak to quantify, mostly under pKd 3.1 to 4
Conditions: plain residues with an end cap or a label only (N-terminal biotin on a linker: ado-ado)

Chain of Inadl_2, Q8NI35 (Q8NI35 238-335): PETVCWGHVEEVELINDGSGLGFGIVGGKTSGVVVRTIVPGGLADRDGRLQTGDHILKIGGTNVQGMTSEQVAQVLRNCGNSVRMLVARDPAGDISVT

Binder	pKd
TKGPRGPTRV [SAPCD1, Q5SSQ6]	below the threshold
ETQVTAETVI [TMEM225B, P0DP42]	below the threshold

Target: Inadl_3, Q8NI35
Assay: holdup assay
Parameters: key: below the threshold = too weak to quantify, mostly under pKd 3.1 to 4
Conditions: plain residues with an end cap or a label only (N-terminal biotin on a linker: ado-ado)

Chain of Inadl_3, Q8NI35 (Q8NI35 359-469): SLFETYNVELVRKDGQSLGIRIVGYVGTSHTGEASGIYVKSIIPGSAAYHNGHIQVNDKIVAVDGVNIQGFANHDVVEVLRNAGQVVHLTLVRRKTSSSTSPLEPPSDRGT

Binder	pKd
TKGPRGPTRV [SAPCD1, Q5SSQ6]	below the threshold
ETQVTAETVI [TMEM225B, P0DP42]	4.26

Target: Inadl_5, Q8NI35
Assay: holdup assay
Parameters: key: below the threshold = too weak to quantify, mostly under pKd 3.1 to 4
Conditions: plain residues with an end cap or a label only (N-terminal biotin on a linker: ado-ado)

Chain of Inadl_5, Q8NI35 (Q8NI35 673-780): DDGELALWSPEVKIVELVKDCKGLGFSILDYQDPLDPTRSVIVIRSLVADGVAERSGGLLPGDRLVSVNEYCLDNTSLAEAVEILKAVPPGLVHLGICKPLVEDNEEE

Binder	pKd
TKGPRGPTRV [SAPCD1, Q5SSQ6]	3.61
ETQVTAETVI [TMEM225B, P0DP42]	below the threshold

Target: LIMK2, P53671
Assay: holdup assay
Parameters: key: below the threshold = too weak to quantify, mostly under pKd 3.1 to 4
Conditions: plain residues with an end cap or a label only (N-terminal biotin on a linker: ado-ado)

Chain of LIMK2, P53671 (P53671 143-248): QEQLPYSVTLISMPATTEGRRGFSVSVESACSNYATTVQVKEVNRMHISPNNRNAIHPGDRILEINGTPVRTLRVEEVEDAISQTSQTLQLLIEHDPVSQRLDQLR

Binder	pKd
TKGPRGPTRV [SAPCD1, Q5SSQ6]	below the threshold
ETQVTAETVI [TMEM225B, P0DP42]	below the threshold

Target: T5, LNX2_3, Q8N448
Assay: holdup assay
Parameters: key: below the threshold = too weak to quantify, mostly under pKd 3.1 to 4
Conditions: plain residues with an end cap or a label only (N-terminal biotin on a linker: ado-ado)

Binder	pKd
TKGPRGPTRV [SAPCD1, Q5SSQ6]	below the threshold
ETQVTAETVI [TMEM225B, P0DP42]	below the threshold

Target: T6, MPP6, Q9NZW5
Assay: holdup assay
Parameters: key: below the threshold = too weak to quantify, mostly under pKd 3.1 to 4
Conditions: plain residues with an end cap or a label only (N-terminal biotin on a linker: ado-ado)

Binder	pKd
TKGPRGPTRV [SAPCD1, Q5SSQ6]	below the threshold
ETQVTAETVI [TMEM225B, P0DP42]	below the threshold

Target: PDLIM1, O00151
Assay: holdup assay
Parameters: key: below the threshold = too weak to quantify, mostly under pKd 3.1 to 4
Conditions: plain residues with an end cap or a label only (N-terminal biotin on a linker: ado-ado)

Chain of PDLIM1, O00151 (O00151 1-87): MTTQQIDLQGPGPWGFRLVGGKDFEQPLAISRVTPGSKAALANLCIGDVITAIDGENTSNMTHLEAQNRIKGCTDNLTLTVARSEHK

Binder	pKd
TKGPRGPTRV [SAPCD1, Q5SSQ6]	below the threshold
ETQVTAETVI [TMEM225B, P0DP42]	below the threshold

Target: T7, PDZD2_2, O15018
Assay: holdup assay
Parameters: key: below the threshold = too weak to quantify, mostly under pKd 3.1 to 4
Conditions: plain residues with an end cap or a label only (N-terminal biotin on a linker: ado-ado)

Binder	pKd
TKGPRGPTRV [SAPCD1, Q5SSQ6]	3.88
ETQVTAETVI [TMEM225B, P0DP42]	3.92

Target: T8, RADIL, Q96JH8
Assay: holdup assay
Parameters: key: below the threshold = too weak to quantify, mostly under pKd 3.1 to 4
Conditions: plain residues with an end cap or a label only (N-terminal biotin on a linker: ado-ado)

Binder	pKd
TKGPRGPTRV [SAPCD1, Q5SSQ6]	3.54
ETQVTAETVI [TMEM225B, P0DP42]	below the threshold

Target: T9, RAPGEF6, Q8TEU7
Assay: holdup assay
Parameters: key: below the threshold = too weak to quantify, mostly under pKd 3.1 to 4
Conditions: plain residues with an end cap or a label only (N-terminal biotin on a linker: ado-ado)

Binder	pKd
TKGPRGPTRV [SAPCD1, Q5SSQ6]	below the threshold
ETQVTAETVI [TMEM225B, P0DP42]	below the threshold

Target: T10, SNTB1, Q13884
Assay: holdup assay
Parameters: key: below the threshold = too weak to quantify, mostly under pKd 3.1 to 4
Conditions: plain residues with an end cap or a label only (N-terminal biotin on a linker: ado-ado)

Binder	pKd
TKGPRGPTRV [SAPCD1, Q5SSQ6]	4.46
ETQVTAETVI [TMEM225B, P0DP42]	4.8

Target: T11, SNTG1, Q9NSN8
Assay: holdup assay
Parameters: key: below the threshold = too weak to quantify, mostly under pKd 3.1 to 4
Conditions: plain residues with an end cap or a label only (N-terminal biotin on a linker: ado-ado)

Binder	pKd
TKGPRGPTRV [SAPCD1, Q5SSQ6]	below the threshold
ETQVTAETVI [TMEM225B, P0DP42]	3.9

Target: T12, TIAM2, Q8IVF5
Assay: holdup assay
Parameters: key: below the threshold = too weak to quantify, mostly under pKd 3.1 to 4
Conditions: plain residues with an end cap or a label only (N-terminal biotin on a linker: ado-ado)

Binder	pKd
TKGPRGPTRV [SAPCD1, Q5SSQ6]	below the threshold
ETQVTAETVI [TMEM225B, P0DP42]	3.79

Target: TJP1_3, Q07157
Assay: holdup assay
Parameters: key: below the threshold = too weak to quantify, mostly under pKd 3.1 to 4
Conditions: plain residues with an end cap or a label only (N-terminal biotin on a linker: ado-ado)

Chain of TJP1_3, Q07157 (Q07157 416-512): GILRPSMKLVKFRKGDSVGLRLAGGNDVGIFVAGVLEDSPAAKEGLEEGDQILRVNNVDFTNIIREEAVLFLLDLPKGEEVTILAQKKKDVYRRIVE

Binder	pKd
TKGPRGPTRV [SAPCD1, Q5SSQ6]	below the threshold
ETQVTAETVI [TMEM225B, P0DP42]	below the threshold

Source: article PMC9482650, “Quantitative fragmentomics allow affinity mapping of interactomes” (Nature Communications, 2022)
